This note sets out measurements from PMC6468249.

Read-outs that look alike come from different tables or passages of the source.

The target of series [1] is T1, mtSSB (Homo sapiens, UniProt Q04837 15-148).
T1 sequence: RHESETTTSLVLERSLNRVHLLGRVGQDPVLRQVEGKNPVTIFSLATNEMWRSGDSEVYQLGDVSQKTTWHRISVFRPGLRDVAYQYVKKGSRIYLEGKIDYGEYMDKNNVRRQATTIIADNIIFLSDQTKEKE
As to the kind of experiment: EMSA. (In general: In EMSA bound probe runs differently from free probe, usually more slowly.)

For series [2], the target named is T1, mtSSB. In words: EMSA. This is another data set of the same source.

As to AGAACCUGUUGAACAAAAGC (ssRNA) [20 nt RNA probe], the binding result in series [1] is listed as “binds”.

For AGAACCTGTTGAACAAAAGC (ssDNA) [20 nt ssDNA probe], in series [2], the binding result was “binds”.
